According to patent US20220332795A1 (ARO BIOTHERAPEUTICS, published 2022):
Where a chain is given by its changes, count along the chain named.

B1: ABX1100 (designed binder)
chain: MLPAPKNLVVSRVTEDSARLSWTAPDAAFDSFYIAYAEPRPDGEAILLQVPGSCRSYDLTGLKPGTEYSVLIHGVKGGLLSSPLTAIFTT
modifications: siRNA pair with linker (attachment residue not stated for this molecule)
notes: FN3 domain-siRNA conjugate; also called CD71 FN3 domain siRNA conjugate
B2: SEQ ID NO 205 (designed binder, not shown: small tags and cut ends)
chain: MLPAPKNLVVSRVTEDSARLSWTAPDAAFDSFFIGYLEPQPPGEAILLGVPGSERSYDLTGLKPGTEYNVTIQGVKGGFPSMPLHPLVALFTT
B3: SEQ ID NO 221 (designed binder, not shown: small tags and cut ends)
chain: MLPAPKNLVVSRVTEDSARLSWTAPDAAFDSFFIGYLEPQPPGEAIFLDVPGSERSYDLTGLKPGTEYNVTIQGVKGGFPSPLTAFFTT
B4: SEQ ID NO 270 (designed binder, not shown: small tags and cut ends)
chain: MLPAPKNLVVSRVTEDSARLSWTAPDAAFDSFAIEYCETKMCGEAIVLTVPGSERSYDLTGLKPGTEYRVPIPGVKGGTASLPLSAIFTT
B5: SEQ ID NO 213 (designed binder, not shown: small tags and cut ends)
chain: MLPAPKNLVVSRVTEDSARLSWTAPDAAFDSFYIAYAEPRPDGEAILLGVPGSERSYDLTGLKPGTEYSVLIHGVKGGLLSSPLFTT
B6: SEQ ID NO 268 (designed binder, not shown: small tags and cut ends)
chain: B5 chain with L47Y, G49E
B7: SEQ ID NO 259 (designed binder, not shown: small tags and cut ends)
chain: B1 chain with L47Q, Q49G, C54E, T85L, I87V
B8: SEQ ID NO 266 (designed binder, not shown: small tags and cut ends)
chain: B1 chain with L47R, C54E, T85G, I87S
B9: SEQ ID NO 269 (designed binder, not shown: small tags and cut ends)
chain: B1 chain with L47W, Q49D, C54E, T85D, I87Y
B10: SEQ ID NO 264 (designed binder, not shown: small tags and cut ends)
chain: B1 chain with L47N, Q49S, C54E, T85D, I87Y
B11: SEQ ID NO 260 (designed binder, not shown: small tags and cut ends)
chain: B1 chain with L47H, Q49R, C54E, S69N, L71T, H73Q, L79F, L80P, S82M, T85S
B12: SEQ ID NO 265 (designed binder, not shown: small tags and cut ends)
chain: B1 chain with L47V, Q49E, C54E, I87S
B13: SEQ ID NO 267 (designed binder, not shown: small tags and cut ends)
chain: B1 chain with L47G, Q49W, C54E, T85V, I87Y
B14: SEQ ID NO 262 (designed binder, not shown: small tags and cut ends)
chain: B1 chain with L47V, Q49H, C54E, T85Q
B15: SEQ ID NO 261 (designed binder, not shown: small tags and cut ends)
chain: B1 chain with C54E, T85I, I87K
B16: SEQ ID NO 263 (designed binder, not shown: small tags and cut ends)
chain: B1 chain with L47A, Q49V, C54E, T85A, I87N
B17: SEQ ID NO 243 (designed binder, not shown: small tags and cut ends)
chain: MLPAPKNLVVSRVTEDSARLSWTAPDAAFDSFFIGYLEPQPPGEAIHLAVPGSERSYDLTGLKPGTEYNVTIQGVKGGFPSVPLAAVFTT
B18: SEQ ID NO 210 (designed binder, not shown: small tags and cut ends)
chain: B17 chain with H47N, A49Q, V82F, A85S
B19: SEQ ID NO 203 (designed binder, not shown: small tags and cut ends)
chain: B17 chain with H47V, A49L, V87F
B20: SEQ ID NO 231 (designed binder, not shown: small tags and cut ends)
chain: B17 chain with A49Y, V82D, A85D
B21: SEQ ID NO 222 (designed binder, not shown: small tags and cut ends)
chain: B17 chain with H47V, A49D, V82H, V87A
B22: SEQ ID NO 223 (designed binder, not shown: small tags and cut ends)
chain: B17 chain with H47G, A85Q, V87N
B23: SEQ ID NO 251 (designed binder, not shown: small tags and cut ends)
chain: B17 chain with H47G, A49W, V82D, A85Q
B24: SEQ ID NO 235 (designed binder, not shown: small tags and cut ends)
chain: B17 chain with H47Q, A49T, V82L, A85S, V87D
B25: SEQ ID NO 208 (designed binder, not shown: small tags and cut ends)
chain: B17 chain with H47V, V82Y, A85V, V87A
B26: SEQ ID NO 216 (designed binder, not shown: small tags and cut ends)
chain: MLPAPKNLVVSRVTEDSARLSWTAPDAAFDSFYIAYAEPRPDGEAISLSVPGSERSYDLTGLKPGTEYSVLIHGVKGGLLSSPPKFTT
B27: SEQ ID NO 238 (designed binder, not shown: small tags and cut ends)
chain: B26 chain with A24T, S47R, S49Q, P84L, K85G
B28: SEQ ID NO 204 (designed binder, not shown: small tags and cut ends)
chain: MLPAPKNLVVSRVTEDSARLSWTAPDAAFDSFFIGYLEPQPPGEAILLWVPGSERSYDLTGLKPGTEYNVTIQGVKGGFPSQFTT
B29: SEQ ID NO 232 (designed binder, not shown: small tags and cut ends)
chain: B28 chain with L47Y, W49D, Q82T

These binders were tested against T1, human CD71 on cells (human, UniProt P02786 1-760) (assay: Membrane Proteome Array, flow cytometry on QT6 cells).
T1 construct: whole, on cells; also called the receptor
T1 sequence (P02786 whole entry): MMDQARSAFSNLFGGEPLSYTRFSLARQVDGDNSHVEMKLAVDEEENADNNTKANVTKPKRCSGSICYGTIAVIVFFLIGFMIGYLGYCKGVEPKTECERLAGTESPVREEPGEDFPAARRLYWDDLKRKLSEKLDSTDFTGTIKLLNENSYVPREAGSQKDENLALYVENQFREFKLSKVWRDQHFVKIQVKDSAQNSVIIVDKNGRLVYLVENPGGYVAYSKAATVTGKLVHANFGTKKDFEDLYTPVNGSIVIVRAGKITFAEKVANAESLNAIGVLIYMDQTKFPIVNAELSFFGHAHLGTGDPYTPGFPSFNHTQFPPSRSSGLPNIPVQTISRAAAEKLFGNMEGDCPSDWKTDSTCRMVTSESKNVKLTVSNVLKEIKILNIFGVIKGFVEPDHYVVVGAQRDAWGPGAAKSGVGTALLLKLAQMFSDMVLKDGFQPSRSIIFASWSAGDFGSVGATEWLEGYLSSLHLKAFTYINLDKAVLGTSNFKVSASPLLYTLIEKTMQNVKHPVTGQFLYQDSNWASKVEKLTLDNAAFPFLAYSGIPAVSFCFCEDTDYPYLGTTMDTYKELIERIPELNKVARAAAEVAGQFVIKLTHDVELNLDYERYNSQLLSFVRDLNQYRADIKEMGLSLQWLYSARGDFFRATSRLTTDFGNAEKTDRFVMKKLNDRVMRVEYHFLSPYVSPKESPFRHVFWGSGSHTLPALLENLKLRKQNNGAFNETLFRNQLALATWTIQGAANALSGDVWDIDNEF

Binder	binding result
B1	binds

Each binder was assayed against T2, human CD71 extracellular domain (human, UniProt P02786 89-760, biotinylated) (assay: solution ELISA screen (luminescence)).
T2 construct: extracellular domain; also called hCD71; huCD71 ECD
T2 sequence (P02786 other isoform, or with tags, fused parts or gaps): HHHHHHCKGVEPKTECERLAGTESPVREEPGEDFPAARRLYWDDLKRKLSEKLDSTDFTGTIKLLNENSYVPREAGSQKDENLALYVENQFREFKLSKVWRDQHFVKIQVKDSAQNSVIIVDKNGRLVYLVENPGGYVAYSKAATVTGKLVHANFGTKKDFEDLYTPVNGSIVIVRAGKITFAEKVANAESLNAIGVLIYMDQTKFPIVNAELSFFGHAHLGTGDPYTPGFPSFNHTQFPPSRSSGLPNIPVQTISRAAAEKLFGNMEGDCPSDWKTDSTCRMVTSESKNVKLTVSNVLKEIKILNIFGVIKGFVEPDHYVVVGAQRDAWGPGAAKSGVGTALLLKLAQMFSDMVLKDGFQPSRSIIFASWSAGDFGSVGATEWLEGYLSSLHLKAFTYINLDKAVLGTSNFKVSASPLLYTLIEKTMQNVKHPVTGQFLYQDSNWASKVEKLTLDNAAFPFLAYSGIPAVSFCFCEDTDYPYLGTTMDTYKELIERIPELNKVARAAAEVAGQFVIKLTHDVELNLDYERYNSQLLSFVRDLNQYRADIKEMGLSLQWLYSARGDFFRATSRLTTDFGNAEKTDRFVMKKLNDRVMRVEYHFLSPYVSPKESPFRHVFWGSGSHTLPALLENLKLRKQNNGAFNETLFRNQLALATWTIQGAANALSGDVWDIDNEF

RLU [RLU]	Binder
2.81e+06	B2
966000	B3
3.32e+06	B4
1.73e+06	B5
2.77e+06	B6
1.26e+06	B7
418000	B8
812000	B9
368000	B10
4.88e+06	B11
5.77e+06	B12
573000	B13
3.94e+06	B14
2.39e+06	B15
584000	B16
1.97e+06	B17
2.41e+06	B18
2.38e+06	B19
2.32e+06	B20
1.47e+06	B21
1.93e+06	B22
2.51e+06	B23
943000	B24
3e+06	B25
4.15e+06	B26
3.07e+06	B27
3.29e+06	B28
1.08e+06	B29

Each binder was assayed against T3, CD71 apical domain (human, UniProt P02786 189-383, limits assumed) (assay: solution ELISA screen (luminescence)).
T3 construct: domain: apical domain
T3 sequence (P02786 189-383 limits assumed): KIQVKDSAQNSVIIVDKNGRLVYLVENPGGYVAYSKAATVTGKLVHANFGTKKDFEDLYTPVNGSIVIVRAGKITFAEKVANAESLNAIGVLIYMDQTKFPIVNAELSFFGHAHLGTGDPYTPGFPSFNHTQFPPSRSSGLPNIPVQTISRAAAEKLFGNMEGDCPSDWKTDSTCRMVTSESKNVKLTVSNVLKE

RLU [RLU]	Binder
150000	B2
31800	B3
6.49e+06	B4
2.03e+06	B5
94800	B6
5.96e+06	B7
4.23e+06	B8
5.56e+06	B9
4.32e+06	B10
7.05e+06	B11
7.21e+06	B12
5.55e+06	B13
7.13e+06	B14
93200	B15
4.37e+06	B16
3.19e+06	B17
4.12e+06	B18
5.69e+06	B19
6.83e+06	B20
1.07e+06	B21
3.6e+06	B22
5.73e+06	B23
1.67e+06	B24
3.7e+06	B25
142000	B26
112000	B27
6.35e+06	B28
95400	B29

These binders were tested against T2, human CD71 extracellular domain (assay: solution ELISA screen, signal ratio to HSA control).

hCD71:HSA [ratio]	Binder
18.1	B2
16.4	B3
51.6	B4
24.6	B5
23.6	B6
49.7	B7
11.6	B8
40.8	B9
15.1	B10
146	B11
188	B12
19.2	B13
128	B14
13.7	B15
24.5	B16
63.8	B17
49.7	B18
91.6	B19
112	B20
94.5	B21
105	B22
96.1	B23
39.5	B24
184	B25
21.6	B26
31	B27
164	B28
14.3	B29

The binders below were run against T3, CD71 apical domain (assay: solution ELISA screen, signal ratio to HSA control).

apical domain:HSA [ratio]	Binder
1	B2
0.5	B3
101	B4
28.9	B5
0.8	B6
235	B7
117	B8
279	B9
177	B10
211	B11
235	B12
186	B13
231	B14
0.5	B15
184	B16
103	B17
85	B18
219	B19
331	B20
69	B21
197	B22
220	B23
70.1	B24
226	B25
0.7	B26
1.1	B27
317	B28
1.3	B29
